Assay results from US20250082769A1, “CELLULAR UPTAKE PEPTIDE-THERAPEUTIC PAYLOAD COMPOSITIONS AND METHODS OF USE” (Nighthawk Biosciences, Inc., priority 2022, published 2025).
Read-outs that look alike come from different tables or passages of the source. Non-standard residues stand in square brackets, D forms with d. Residues, ends and D or L forms follow the SMILES beside them. *: point of attachment. Dolaproine = CO[C@@H]([C@@H]1CCCN1)[C@@H](C)C(=O)O; Dil = CC[C@H](C)[C@H](NC)[C@@H](CC(=O)O)OC; X1 = C[C@@H](N*)[C@@H](O)c1ccccc1; NMeV = CN[C@H](C(=O)O)C(C)C

Columns and labels:
CHLA06 cells [1] = assay: Dose response / cell viability in CHLA06 cells; type: cell-based
Procedure: (§1) Biological activity of the peptides was determined using various assays. To determine proliferative activity, cells were plated at 5×10^3 cells per well in a 96-well microtiter plate. Samples and controls were added and the plates incubated for 24, 48 and 72 hours at 37° C. Viability was determined by adding WST-1 and reading at […] over 1-4 hours. Alternatively, viability was determined using a kit such as the EZViable calcein AM cell viability assay (BioVision) or the Live/Dead Cell imaging kit (ThermoFisher). Induction of cell events such as apoptosis was determined using reagents such as Cell Event Caspase 3/7 reagent (ThermoFisher).

A431 cells = assay: Dose response / cell viability in A431 cells; type: cell-based, human
Procedure: as §1
(§2) Cells were plated at 5000 cells/well in 100 ul D10 on day 0.100 ul of PDCs were added and titrated 1:1 in D10 (starting concentration=500 nM). WST-1 was added at 72 hours and the plates read over 5 hours at […] in a Promega GloMax.
A pocket biologic (peptide or antibody) having an internalization portion, a linker, and a localization signal was developed to deliver a drug or biological therapeutic into the cell. […] 429-MMAE-1 and 429-NLS-Panobinostat constructs were developed for in vivo studies. G292 cell lines and A431 cell lines were used in the in vivo studies. G292 cells were derived from a primary osteosarcoma of a person. […] A431 cells were established from an epidermoid carcinoma in the skin (epidermis) of a patient. Epidermal growth factor (EGF) stimulation of A431 cells induces rapid tyrosine phosphorylation of intracellular signaling proteins which control cellular processes such as growth, proliferation and apoptosis. […] 429-MMAE affected cell viability in G292 cell lines (FIG. 16A-FIG. 17). 429-MMAE at 50 nm, 125 nm, 250 nm, 500 nm concentrations and OV-MMAE conjugates at 50 nm, 125 nm, 250 nm, 500 nm concentrations were compared to DMSO and MMAE at 50 nm in G292 cells.

microtubules = assay: ViaFluor 647 live cell microtubule stain (FIG. 6); type: cell-based; details: ViaFluor 647 stain, 60 minutes at 37° C.
Procedure: Cells were stained with ViaFluor 647 live cell microtubule stain (Biotium). Cells were treated as in FIG. 3 and stain with ViaFluor for 60 minutes at 37° C.

[2] = system: cancer cell lines of different lineages; assay: Internalization of OV-8 in cell lines; type: cell-based; details: FIG. 2
HCT116 cells = assay: Dose response / cell viability in HCT116 cells; type: cell-based, human; details: HCT116 Myc-reporter cells
Procedure: as §1, §2

CHLA06 cells [3] = assay: Caspase assay (apoptosis) in CHLA06 cells; type: cell-based; details: SMARCB1 conjugate and tazemetostat treatments
Procedure: as §1
429-MMAE was also compared with 429-SM in various cell lines. 429-SM represents 429-Smarc-MMAE and consists of 429-linker-NLS-SMARCB1 mimic to which 1 or 2 MMAE molecules are conjugated through the cysteines. CHLA06 cells were plated at 10,000 cells/well in B27-5 overnight. Samples were added and incubated for 48 hours at 37° C. Caspase 3/7 reagent was added and plates were read after 30 minutes at room temperature. […] Induction of apoptosis is directly correlated with drug concentration (i.e., higher the concentration of drug, the higher the apoptotic effect). […] 429-SM was also effective in A431 and HCT116 cells (FIG. 42C-42D).

CHLA06 cells [4] = assay: Confocal microscopy of 429-SMARCB1 in CHLA06 cells; type: cell-based; details: confocal fluorescent microscopy
ATRT cell lines = assay: Apoptosis in ATRT cell lines, combination with tazemetostat; type: cell-based
Myc transcription = Myc transcription in HCT116 Myc-reporter cells; type: cell-based, human; details: for inhibition of Myc transcription: dose series
CHLA02 cells = assay: Caspase activity / apoptosis in CHLA02 cells; type: cell-based; details: CHL02 cells; SMARCB1 Mimic (F) and tazemetostat treatments
Procedure: as §1

Molecule: C[C@]1(O)C[C@@H](c2nc(-c3ccc4ccc(-c5ccccc5)nc4c3)c3c(N)nccn32)C1 [Linsitinib]
- effect on CHLA06 cells (dose response) (CHLA06 cells [1]; FIG. 38A): no effects

Molecule: CC[C@H](C)[C@@H]([C@@H](CC(=O)N1CCC[C@H]1[C@H](OC)[C@@H](C)C(=O)N[C@H](C)[C@@H](O)c1ccccc1)OC)N(C)C(=O)[C@@H](NC(=O)[C@@H](NC)C(C)C)C(C)C [MMAE, monomethyl auristatin E, reference compound] (H-[NMeV]V[Dil][Dolaproine]-X1)
- IC50 (A431 cells; A431 cells, MMAE at 1:3 dilutions, FIG. 20A, read-out: IC50 value (four-parameter non-linear regression)): 0.0712 nM
- disruption of microtubules (microtubules): disrupt microtubules

Molecule: Nc1ncnc2c1c(-c1cccc(OCc3ccccc3)c1)cn2C1CC(CN2CCCC2)C1 (centres unmarked) [NVP-ADW742]
- effect on CHLA06 cells (dose response) (CHLA06 cells [1]; FIG. 38A): no effects

Molecule: COc1cc([C@@H]2c3cc4c(cc3[C@H](O)[C@H]3COC(=O)[C@@H]23)OCO4)cc(OC)c1OC [PPP, Picropodophyllin]
- effect on CHLA06 cells (dose response) (CHLA06 cells [1]; FIG. 38A): active
- effectiveness compared to 429-MMAE in terms of IC50 (CHLA06 cells [1]; FIG. 38A): less effective

Molecule: Cc1[nH]c2ccccc2c1CCNCc1ccc(/C=C/C(=O)NO)cc1 [Panobinostat, reference compound]
- IC50 (A431 cells; Homo sapiens, A-431, A431 cells, FIG. 20B, FIG. 24A, read-out: IC50 value): 108 nM
- IC50 (A431 cells; Homo sapiens, A-431, printed as A431 treated with Panobinostat, in the sentence on CHLA06 cells, FIG. 24B, read-out: IC50): > 500 nM

Molecule: FSFGNSSLRKLPGVVRRRRCARGVWR [Skwx-OV-8]
- internalization into cancer cell lines [2]: internalize

B1: 429-SMARCB1: 429 construct delivering SmarcB1-myc binding sequence to nucleus (peptide)
chain: DFYGCLLDLSLGVPSLGWRRRCITAWLPSSIPKKKRKVDGQKLRDAFTWNMNEKLMTPEMFSEILCDDLD
modifications: 429 conjugate
- cell viability (CHLA06 cells [1]; 429-SMARCB1 and tazemetostat treatments): reduced cell viability
- HCT116 cell viability compared to a control (HCT116 cells): affects HCT116 cell viability
- caspase activity (CHLA06 cells [3]): increased caspase activity
- internalization (CHLA06 cells [4]; CHLA06 cells): internalized
- co-localization with histones (CHLA06 cells [4]): co-localizes with histones
- apoptotic effect in combination with tazemetostat (ATRT cell lines): synergistic apoptotic effect
- Myc transcription compared to the control (Myc transcription; 5 nM): significantly affects Myc transcription
- Myc transcription compared to the control (Myc transcription; 50 nM): significantly affects Myc transcription
- inhibition of Myc transcription (Myc transcription): inhibits Myc transcription

B2: DFYGCLLDLSLGVPSLGWRRRCITAWLPSSIPKKKRKVDGQKLRDAFTWNMNEKLMTPEMFSEILCDDLD (peptide)
chain: DFYGCLLDLSLGVPSLGWRRRCITAWLPSSIPKKKRKVDGQKLRDAFTWNMNEKLMTPEMFSEILCDDLD
modifications: not fully specified
- CHLA06 cell viability compared to 429 control (CHLA06 cells [1]; 50 ug): significantly affected CHLA06 cell viability
- HCT116 cell viability compared to a control (HCT116 cells): inhibited
- caspase activity (CHLA06 cells [3]): significantly increased caspase activity
- caspase activity (CHLA02 cells): significantly increased caspase activity
- inhibition of Myc transcription (Myc transcription): inhibited
